# B1: SUCNR1/GPR91 (succinate receptor): N8A (protein)
# parent chain: MLGIMAWNATCKNWLAAEAALEKYYLSIFYGIEFVVGVLGNTIVVYGYIFSLKNWNSSNIYLFNLSVSDLAFLCTLPMLIRSYANGNWIYGDVLCISNRYVLHANLYTSILFLTFISIDRYLIIKYPFREHLLQKKEFAILISLAIWVLVTLELLPILPLINPVITDNGTTCNDFASSGDPNYNLIYSMCLTLLGFLIPLFVMCFFYYKIALFLKQRNRQVATALPLEKPLNLVIMAVVIFSVLFTPYHVMRNVRIASRLGSWKQYQCTQVVINSFYIVTRPLAFLNSVINPVFYFLLGDHFRDMLMNQLRHNFKSLTSFSRWAHELLLSFREK
# B2: SUCNR1/GPR91 (succinate receptor): N168A (protein)
# parent chain: B1 parent chain
# Legend:
# [1] = confocal IF, colocalisation with calnexin, HEK 293T; conditions: glycan lost; control: wild type
# [2] = surface FLAG IF, nonpermeabilized HEK 293T, cadherin marker; conditions: glycan lost; control: wild type
Protein,localisation_or_trafficking [1],localisation_or_trafficking [2]
B1,changes,increases
B2,no change,no change
